Measured values taken from article PMC3464217, “Anti-HIV Double Variable Domain Immunoglobulins Binding Both gp41 and gp120 for Targeted Delivery of Immunoconjugates” (PLoS ONE, 2012).

Target: T1, recombinant gp160 (HIV-1 group M subtype B, IIIB (clone …, UniProt P03375, strain))
T1 construct: also called rgp160; source: bought: Quality Biological; recombinant, expressed in mammalian cells
Assay: SPR
Conditions: both partners purified

B1: 7B2 (antibody, V domains shown)
VH: QVQLVQSGGGVFKPGGSLRLSCEASGFTFTEYYMTWVRQAPGKGLEWLAYISKNGEYSKYSPSSNGRFTISRDNAKNSVFLQLDRLSADDTAVYYCARADGLTYFSELLQYIFDLWGQGARVTVSS
VL: DIVMTQSPDSLAVSPGERATIHCKSSQTLLYSSNNRHSIAWYQQRPGQPPKLLLYWASMRLSGVPDRFSGSGSGTDFTLTINNLQAEDVAIYYCHQYSSHPPTFGHGTRVELR
notes: also called anti-gp41 Ab (7B2); 7B2 parent; source: 293F cells, transiently transfected; purified from supernatant on Protein A agarose
B1: binds.
